The target of this experiment is T1, DC-SIGN (human lectin receptor) expressed on a recombinant HEK cell line (human, UniProt Q9NNX6 1-404).
T1 construct: whole, on cells; The construct in the HEK cell line is not described
T1 sequence (looked up): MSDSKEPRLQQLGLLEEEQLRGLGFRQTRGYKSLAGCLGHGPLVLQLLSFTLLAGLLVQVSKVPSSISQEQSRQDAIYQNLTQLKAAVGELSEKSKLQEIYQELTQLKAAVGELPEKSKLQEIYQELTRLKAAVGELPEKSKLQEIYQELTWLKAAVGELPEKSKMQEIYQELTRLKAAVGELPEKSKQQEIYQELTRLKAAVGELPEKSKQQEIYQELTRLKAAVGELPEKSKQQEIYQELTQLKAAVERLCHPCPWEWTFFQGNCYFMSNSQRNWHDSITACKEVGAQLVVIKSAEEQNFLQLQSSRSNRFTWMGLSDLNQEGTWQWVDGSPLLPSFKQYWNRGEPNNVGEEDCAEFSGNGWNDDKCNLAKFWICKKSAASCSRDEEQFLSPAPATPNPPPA
The experiment in a line: binding to recombinant HEK cells expressing DC-SIGN (method not described).

B1: infliximab produced in CHO cell lines (antibody, V domains shown)
VH: EVKLEESGGGLVQPGGSMKLSCVASGFIFSNHWMNWVRQSPEKGLEWVAEIRSKSINSATHYAESVKGRFTISRDDSKSAVYLQMTDLRTEDTGVYYCSRNYYGSTYDYWGQGTTLTVSA
VL: DILLTQSPAILSVSPGERVSFSCRASQFVGSSIHWYQQRTNGSPRLLIKYASESMSGIPSRFSGSGSGTDFTLSINTVESEDIADYYCQQSHSWPFTFGSGTNLEVKR
modifications: single N-glycosylation site at position Asn297 ; chain 1 pos 300: Asn297 (EU) carries the single N-glycan; the glycoform depends on the CHO line (Inf or Inf-Sial)
On to B1, for which the binding result is “no binding”.

Source of the values: US20160153020A1 (GLYCOTREK, published 2016).
